The assay has as its target Src-YN (mouse). The assay is described as follows: split reporter (BiFC, NanoBiT); BiFC with YFP fragments YC (155-238) and YN (1-154) in co-transfected CHO-K1 cells on fibronectin-coated coverslips; whole cells, fixed (also live cells and TIRFM), wide-field fluorescence; cells scored as background, ER + punctate or only punctate.

“YC-PTP1BWT (from UniProt P18031 1-435) (enzyme)”: the % of cells with BiFC signal (ER + punctate) came out at 86% and the % of cells with BiFC signal (only punctate) was 14%.

The values above are taken from article PMC3372476.
